Measured values published in patent publication US20220340635A1, “FUSION PROTEIN FOR TREATMENT OF METABOLIC DISEASE” (ZHEJIANG DOER BIOLOGICS CORPORATION, priority 2019, published 2022).

Target: β-klotho (KLB)
Experiment: cell-based or functional assay

Question: Which FGF21 activity (EC50, nM) does the source give for “Natural FGF21 (from UniProt Q9NSA1 29-209) (ligand)” here?
Answer: Its FGF21 activity (EC50, nM) is 0.12 nM.
